Starred links: 1 amine or outer side, 2 acyl side, 3 side chain; linkers in the order of their positions; H or OH if unused. Non-standard residues stand in square brackets, D forms with d. Groups on a side chain read outwards from the residue. No end group written: not given here. *: point of attachment. C18 diacid = O=C(O)CCCCCCCCCCCCCCCCC(=O)*; γGlu = O=C(O)[C@H](CCC(=O)[*:2])N[*:1]; αMeL = CC(C)C[C@](C)(N)C(=O)O; Dap = NC[C@H](N)C(=O)O; AEEA = NCCOCCOCC(=O)O; Aib = CC(C)(N)C(=O)O

The record followed here is patent US20240270821A1, “GIP/GLP1/GCG TRI-RECEPTOR AGONISTS AND USES THEREOF” (priority 2023, published 2024).

Assay in all cases: cell-based or functional assay
Experiment [1] concerns the target human glucagon receptor (human) (UniProt P47871).
A further experiment concerns the target hGLP-1R (Homo sapiens, UniProt P43220).
Experiment [2] deals with human GLP-1R (SNAP-GLP-1R expressed in HEK293 cells) (human) (UniProt P43220).
human GLP-1R (SNAP-GLP-1R expressed in HEK293 cells) (human), sequence (P43220 24-463): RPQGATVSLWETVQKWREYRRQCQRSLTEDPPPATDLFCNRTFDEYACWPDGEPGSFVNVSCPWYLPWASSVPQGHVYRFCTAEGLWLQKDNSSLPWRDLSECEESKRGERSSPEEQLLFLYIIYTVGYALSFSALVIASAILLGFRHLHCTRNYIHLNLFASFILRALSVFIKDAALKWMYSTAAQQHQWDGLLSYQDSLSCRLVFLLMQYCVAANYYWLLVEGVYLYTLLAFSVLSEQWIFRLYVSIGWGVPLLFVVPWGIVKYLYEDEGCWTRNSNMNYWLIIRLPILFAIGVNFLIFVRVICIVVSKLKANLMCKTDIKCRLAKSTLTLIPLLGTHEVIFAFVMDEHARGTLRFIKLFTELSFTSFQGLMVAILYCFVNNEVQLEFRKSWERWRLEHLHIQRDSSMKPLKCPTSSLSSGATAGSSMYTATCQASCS
In experiment [3] the target is T1, human GIP receptor (human) (UniProt P48546).
T1 sequence (looked up): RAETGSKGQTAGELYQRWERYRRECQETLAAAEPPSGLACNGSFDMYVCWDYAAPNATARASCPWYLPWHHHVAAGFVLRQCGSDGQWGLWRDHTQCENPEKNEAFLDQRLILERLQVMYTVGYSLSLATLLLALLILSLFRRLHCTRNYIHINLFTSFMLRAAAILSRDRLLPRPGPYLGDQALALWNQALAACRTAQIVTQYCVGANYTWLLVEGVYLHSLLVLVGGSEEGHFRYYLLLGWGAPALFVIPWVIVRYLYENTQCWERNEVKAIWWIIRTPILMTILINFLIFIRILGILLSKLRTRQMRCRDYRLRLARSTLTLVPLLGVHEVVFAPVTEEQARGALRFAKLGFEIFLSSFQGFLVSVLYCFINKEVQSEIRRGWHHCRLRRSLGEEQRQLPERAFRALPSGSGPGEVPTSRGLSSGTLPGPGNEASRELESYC

hGLP-1R, sequence (P43220 24-463): as the sequence (P43220 24-463) above
human glucagon receptor (human), sequence (P47871 26-477): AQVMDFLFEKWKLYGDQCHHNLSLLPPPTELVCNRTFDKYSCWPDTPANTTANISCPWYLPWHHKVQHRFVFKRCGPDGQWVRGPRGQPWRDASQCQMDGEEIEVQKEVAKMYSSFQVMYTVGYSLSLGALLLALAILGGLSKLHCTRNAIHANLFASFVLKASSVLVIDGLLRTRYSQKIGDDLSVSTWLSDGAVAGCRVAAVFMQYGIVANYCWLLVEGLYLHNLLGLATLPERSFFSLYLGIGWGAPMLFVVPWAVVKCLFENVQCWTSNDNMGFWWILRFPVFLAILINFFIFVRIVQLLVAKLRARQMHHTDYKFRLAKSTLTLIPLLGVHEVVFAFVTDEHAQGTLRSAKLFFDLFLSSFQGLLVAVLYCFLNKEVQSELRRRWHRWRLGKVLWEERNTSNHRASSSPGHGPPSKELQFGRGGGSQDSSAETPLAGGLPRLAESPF

B1: Example 1026 (peptide)
chain: YXQGTFTSDXSQXLDXKAQXQFIEXLIEGGPSSGEPPPSGSEE
modifications: non-natural residues, lipidated Lys, C-terminal amide; synthetic construct; SITE 2: note = 2-Aminoisobutyric Acid; SITE 10: note = 3-(4-Pyridyl)-L-alanine; SITE 13: note = alpha-methyl-leucine; SITE 16: note = L-ornithine; SITE 17: note = Lysine is chemically modified through conjugation of the epsilon-amino group of the Lysine side chain with (gamma-Gl)
With B1, in experiment [1], the Relative cAMP EC50 is 0.00632 µM and the cAMP Rel EC50, nM (1% HSA) turned out to be 2080 nM. In the experiment with hGLP-1R, this molecule displayed a Relative cAMP EC50 of 0.00177 µM and a cAMP Rel EC50, nM (1% HSA) of 299 nM. For the same molecule, in experiment [2], the GLP1R Internalization EC50 was 0.0474 µM and the Internalization % TOP worked out at 80%. Also, in experiment [3], the Relative cAMP EC50 worked out at 0.000308 µM and the cAMP Rel EC50, nM (1% HSA) worked out at 61.3 nM.

B2: Example 115 (peptide)
chain: YXQGTFTSDXSXXLDKKAQXAFIEWLLEGGPSSGEPPPSGE
modifications: synthetic construct; SITE 2: note = 2-Aminoisobutyric Acid; SITE 10: note = 3-(4-Pyridyl)-L-alanine; SITE 12: note = L-ornithine; SITE 13: note = alpha-methyl-leucine; SITE 17: note = Lysine is chemically modified through conjugation of the epsilon-amino group of the Lysine side chain with (2-[2-(2-
On to B2, for which the Relative cAMP EC50 in experiment [1] amounted to 0.0106 µM; with hGLP-1R, 0.0076 µM; in experiment [3], 0.000457 µM. Also, the cAMP Rel EC50, nM (in the presence of 1% HSA) turned out to be 2210 nM in experiment [1], 1460 nM with hGLP-1R and 73.9 nM in experiment [3]. In addition, in experiment [2], the GLP1R Internalization EC50 was found to be 0.255 µM. In addition, the Internalization % TOP in experiment [2] amounted to 56.5%.

B3: Example 117 (peptide)
chain: YXQGTFTSDFSXXLDKKAQXAFIEYLLEAGPSSGEPPPSGE
modifications: synthetic construct; SITE 2: note = 2-Aminoisobutyric Acid; SITE 12: note = L-ornithine; SITE 13: note = alpha-methyl-leucine; SITE 17: note = Lysine is chemically modified through conjugation of the epsilon-amino group of the Lysine side chain with (2-[2-(2-Amino-ethoxy)-ethoxy]-acetyl)2-(gamma-Glu)
B3: in experiment [1], the Relative cAMP EC50 worked out at 0.00475 µM and the cAMP Rel EC50, nM (in the presence of 1% HSA) amounted to 867 nM. Besides, in the experiment with hGLP-1R, the Relative cAMP EC50 is 0.0064 µM and the cAMP Rel EC50, nM (in the presence of 1% HSA) is 524 nM. In experiment [2], this molecule returned a GLP1R Internalization EC50 of 0.0455 µM and an Internalization % TOP of 51%. For the same molecule, in experiment [3], the Relative cAMP EC50 came out at 0.000267 µM and the cAMP Rel EC50, nM (in the presence of 1% HSA) worked out at 29.9 nM.

B4: Example 116 (peptide)
chain: YXQGTFTSDFSXXLDKKAQXAFIEYLLEAGPSSGEPPPSEG
modifications: synthetic construct; SITE 2: note = 2-Aminoisobutyric Acid; SITE 12: note = L-ornithine; SITE 13: note = alpha-methyl-leucine; SITE 17: note = Lysine is chemically modified through conjugation of the epsilon-amino group of the Lysine side chain with (2-[2-(2-Amino-ethoxy)-ethoxy]-acetyl)2-(gamma-Glu)
As for B4, the Relative cAMP EC50 in experiment [1] stood at 0.00396 µM; in the experiment with hGLP-1R, 0.00783 µM; in experiment [3], 0.000382 µM. The cAMP Rel EC50, nM (in the presence of 1% HSA) turned out to be 882 nM in experiment [1], 401 nM with hGLP-1R and 40.4 nM in experiment [3]. Besides, in experiment [2], the GLP1R Internalization EC50 came out at 0.0807 µM. In experiment [2], this molecule came in with an Internalization % TOP of 46.2%.

B5: Example 686 (peptide)
chain: YXQGTXTSDXSIXLDXKAQXXFIEXLIEGGPSSGEPPPETE
modifications: synthetic construct; SITE 2: note = 2-Aminoisobutyric Acid; SITE 6: note = alpha-methyl-2-fluoro-L-phenylalanine; SITE 10: note = 3-(4-Pyridyl)-L-alanine; SITE 13: note = alpha-methyl-leucine; SITE 16: note = L-ornithine; SITE 17: note = Lysine is chemically modified through conjugation of the epsil
In the case of B5, the values for the cAMP Rel EC50 (1% HSA) (in experiment [1]; with hGLP-1R; in experiment [3]) were 0.169 µM, 0.0191 µM and 0.000542 µM, respectively. The GLP1R Internalization EC50 in experiment [2] came out at 0.0332 µM. The molecule also had an Internalization % TOP in experiment [2] of 101%.
Consider Y[Aib]QGTFTSDYS[Dap][αMeL]LDKK([AEEA-γGlu-C18 diacid])AQ[Aib]AFIEYLLEGGESSGAPPPSGS-NH2 [Example 360], for which, in experiment [1], the Relative cAMP EC50 was 0.00528 µM and the cAMP Rel EC50, nM (1% HSA) worked out at 1470 nM. Also, in the experiment with hGLP-1R, the Relative cAMP EC50 came out at 0.00586 µM and the cAMP Rel EC50, nM (1% HSA) worked out at 989 nM. In addition, in experiment [2], the GLP1R Internalization EC50 worked out at 0.214 µM and the Internalization % TOP was determined as 66.1%. In experiment [3], this molecule gave a Relative cAMP EC50 of 0.00045 µM and a cAMP Rel EC50, nM (1% HSA) of 78.3 nM.

B6: Example 361 (peptide)
chain: YXQGTFTSDYSRXLDKKAQXAFIEYLLEGGESSGAPPPSGS
modifications: synthetic construct; SITE 2: note = 2-Aminoisobutyric Acid; SITE 13: note = alpha-methyl-leucine; SITE 17: note = Lysine is chemically modified through conjugation of the epsilon-amino group of the Lysine side chain with (2-[2-(2-Amino-ethoxy)-ethoxy]-acetyl)-(gamma-Glu)-CO-(CH2) 16-CO2H; SITE 20: n
Take B6: the values for the cAMP Rel EC50, nM (1% HSA) (in experiment [1]; with hGLP-1R; in experiment [3]) were 987 nM, 376 nM and 46.3 nM, respectively. For the same molecule, the GLP1R Internalization EC50 in experiment [2] amounted to 0.0504 µM. Further, in experiment [2], the Internalization % TOP came to 73%.

B7: Example 122 (peptide)
chain: YXQGTFTSDFSXXLDKKAQXAFIEWLLEGGHSSGAPPPSGE
modifications: synthetic construct; SITE 2: note = 2-Aminoisobutyric Acid; SITE 12: note = L-ornithine; SITE 13: note = alpha-methyl-leucine; SITE 17: note = Lysine is chemically modified through conjugation of the epsilon-amino group of the Lysine side chain with (2-[2-(2-Amino-ethoxy)-ethoxy]-acetyl)-(gamma-Glu)
As for B7, in experiment [1], the Relative cAMP EC50 was found to be 0.00395 µM and the cAMP Rel EC50, nM (in the presence of 1% HSA) was determined as 548 nM. In addition, in the experiment with hGLP-1R, the Relative cAMP EC50 worked out at 0.00393 µM and the cAMP Rel EC50, nM (in the presence of 1% HSA) is 468 nM. For the same molecule, in experiment [2], the GLP1R Internalization EC50 came out at 0.0574 µM and the Internalization % TOP was determined as 43.7%. In experiment [3], the Relative cAMP EC50 turned out to be 0.000189 µM and the cAMP Rel EC50, nM (in the presence of 1% HSA) is 32.6 nM.

B8: Example 125 (peptide)
chain: YXQGTFTSDFSXXLDKKAQXAFIEWLLEGGESSGAPPPEGS
modifications: synthetic construct; SITE 2: note = 2-Aminoisobutyric Acid; SITE 12: note = L-ornithine; SITE 13: note = alpha-methyl-leucine; SITE 17: note = Lysine is chemically modified through conjugation of the epsilon-amino group of the Lysine side chain with (2-[2-(2-Amino-ethoxy)-ethoxy]-acetyl)-(gamma-Glu)
As for B8, in experiment [1], the Relative cAMP EC50 was 0.00397 µM and the cAMP Rel EC50, nM (in the presence of 1% HSA) worked out at 901 nM. In the experiment with hGLP-1R, the Relative cAMP EC50 worked out at 0.00412 µM and the cAMP Rel EC50, nM (in the presence of 1% HSA) is 1050 nM. In experiment [2], this molecule showed a GLP1R Internalization EC50 of 0.0864 µM and an Internalization % TOP of 42.6%. For the same molecule, in experiment [3], the Relative cAMP EC50 amounted to 0.000503 µM and the cAMP Rel EC50, nM (in the presence of 1% HSA) was 67.8 nM.
